Assay [1] deals with T1, human CD38 (human, UniProt P28907 43-300, limits assumed).
T1 construct: also called hCD38
T1 sequence (looked up): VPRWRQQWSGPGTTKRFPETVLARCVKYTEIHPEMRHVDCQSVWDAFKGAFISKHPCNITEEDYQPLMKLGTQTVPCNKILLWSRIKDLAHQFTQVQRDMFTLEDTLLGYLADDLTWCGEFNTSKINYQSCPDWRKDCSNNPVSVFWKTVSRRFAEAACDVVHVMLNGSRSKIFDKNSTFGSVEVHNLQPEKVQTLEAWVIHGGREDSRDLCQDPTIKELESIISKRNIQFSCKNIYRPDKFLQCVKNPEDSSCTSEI
As to the kind of experiment: fluorescence polarisation competition, tracer …-Sar6-K(Fl). A general note: Fluorescence polarisation rises when a labelled molecule tumbles more slowly, as on binding a larger partner.

The target in assay [2] is T1, human CD38. The assay is described as above. The source holds these as a separate data set.

Read-outs that look alike come from different tables or passages of the source. Starred links: 1 amine or outer side, 2 acyl side, 3 side chain; linkers in the order of their positions; H or OH if unused. Positions of bridges follow the written chain, without caps; N, C: chain ends. No end group written: not given here. TBMB = c1c(C[*:1])cc(C[*:3])cc1C[*:2]

B1: BT66BDC-1 (peptide)
peptide: XXXXXXXXXXXACVPCADFPIWYC
modifications: DM1 toxin conjugated to the peptide through a linker shown only in the drawing of formula (I); N-terminal beta-alanine followed by ten sarcosines (Sar10); Ci, Cii and Ciii bound to TBMB scaffold
notes: The attachment site and linker stand only in drawings; also called BDC of formula (I)
In general, Ki refers to the dissociation constant of the complex between target and ligand, obtained from inhibition or displacement. The low end stands for a stronger hold on the target, the high end for a looser hold on the target. In the assay with human CD38 [1], B1 had an inhibition constant Ki of 144 nM. This lies in the sub-micromolar range. In the case of ACFTLDGECFLLGENCA (linker 2-9-16 via TBMB (inferred)) [66-08-52-N001], the affinity with human CD38 [2] corresponds to a Ki of 562 nM. This lies in the sub-micromolar range.
